According to patent US20160130577:

Legend:
Test in all cases: pulldown
Settings in all cases: mass spectrometry
[1] = target: HNRPC (hnRNP C) (Homo sapiens) (UniProt P07910)
[2] = target: HNRPU (hnRNP U) (Homo sapiens) (UniProt Q00839)
[3] = target: NUCL (nucleolin) (Homo sapiens) (UniProt P19338)
RS3 (Homo sapiens) = RS3 (Homo sapiens) (UniProt P23396)
RS4X (Homo sapiens) = RS4X (Homo sapiens) (UniProt P62701)
hnRNPA1 (Homo sapiens) = hnRNPA1 (Homo sapiens) (UniProt P09651)
hnRNPA2B1 (Homo sapiens) = hnRNPA2B1 (Homo sapiens) (UniProt P22626)
Chain of hnRNPA2B1 (Homo sapiens) (P22626 whole entry): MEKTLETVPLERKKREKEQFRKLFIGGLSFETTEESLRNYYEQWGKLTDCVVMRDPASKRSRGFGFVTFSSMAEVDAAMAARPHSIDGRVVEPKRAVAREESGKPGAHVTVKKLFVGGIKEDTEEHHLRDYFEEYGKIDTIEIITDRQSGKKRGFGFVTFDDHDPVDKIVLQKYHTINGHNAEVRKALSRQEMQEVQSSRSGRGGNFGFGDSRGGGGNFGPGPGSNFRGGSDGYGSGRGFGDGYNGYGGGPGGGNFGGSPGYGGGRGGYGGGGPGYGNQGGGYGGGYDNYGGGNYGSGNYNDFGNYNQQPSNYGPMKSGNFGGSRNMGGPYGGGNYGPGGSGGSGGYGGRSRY

Chain of HNRPU (hnRNP U) (Homo sapiens) (Q00839 2-825): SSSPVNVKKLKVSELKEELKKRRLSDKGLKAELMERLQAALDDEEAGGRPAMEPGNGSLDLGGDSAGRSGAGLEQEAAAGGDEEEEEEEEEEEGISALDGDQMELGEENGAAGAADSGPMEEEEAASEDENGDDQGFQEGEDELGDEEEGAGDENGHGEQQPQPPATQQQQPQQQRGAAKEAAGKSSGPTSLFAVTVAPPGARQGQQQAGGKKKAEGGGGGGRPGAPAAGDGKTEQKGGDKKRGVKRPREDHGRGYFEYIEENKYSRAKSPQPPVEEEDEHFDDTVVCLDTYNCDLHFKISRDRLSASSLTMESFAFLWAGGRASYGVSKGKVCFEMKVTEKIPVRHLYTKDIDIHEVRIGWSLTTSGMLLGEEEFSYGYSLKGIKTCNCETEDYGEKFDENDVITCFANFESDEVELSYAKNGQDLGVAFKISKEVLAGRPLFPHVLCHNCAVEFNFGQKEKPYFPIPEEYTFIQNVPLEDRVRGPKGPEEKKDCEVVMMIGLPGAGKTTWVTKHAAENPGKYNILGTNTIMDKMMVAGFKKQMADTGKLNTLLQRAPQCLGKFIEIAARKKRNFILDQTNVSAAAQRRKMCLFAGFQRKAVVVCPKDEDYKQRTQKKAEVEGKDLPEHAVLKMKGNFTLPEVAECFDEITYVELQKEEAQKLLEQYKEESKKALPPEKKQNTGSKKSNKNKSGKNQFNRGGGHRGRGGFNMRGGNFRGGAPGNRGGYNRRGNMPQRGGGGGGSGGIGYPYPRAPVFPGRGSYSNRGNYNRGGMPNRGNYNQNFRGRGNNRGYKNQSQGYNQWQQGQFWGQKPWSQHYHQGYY
Chain of hnRNPA1 (Homo sapiens) (P09651 2-372): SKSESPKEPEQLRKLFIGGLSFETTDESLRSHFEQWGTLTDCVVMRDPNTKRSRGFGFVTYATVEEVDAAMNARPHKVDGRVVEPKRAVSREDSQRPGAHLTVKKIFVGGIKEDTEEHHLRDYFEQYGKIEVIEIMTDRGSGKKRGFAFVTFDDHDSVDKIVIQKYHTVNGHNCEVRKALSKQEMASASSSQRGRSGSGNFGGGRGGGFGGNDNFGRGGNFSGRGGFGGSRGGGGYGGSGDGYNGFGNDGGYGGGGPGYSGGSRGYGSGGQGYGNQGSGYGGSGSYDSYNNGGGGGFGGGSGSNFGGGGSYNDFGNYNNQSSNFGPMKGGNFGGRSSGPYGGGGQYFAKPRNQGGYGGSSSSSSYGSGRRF
Chain of HNRPC (hnRNP C) (Homo sapiens) (P07910 2-306): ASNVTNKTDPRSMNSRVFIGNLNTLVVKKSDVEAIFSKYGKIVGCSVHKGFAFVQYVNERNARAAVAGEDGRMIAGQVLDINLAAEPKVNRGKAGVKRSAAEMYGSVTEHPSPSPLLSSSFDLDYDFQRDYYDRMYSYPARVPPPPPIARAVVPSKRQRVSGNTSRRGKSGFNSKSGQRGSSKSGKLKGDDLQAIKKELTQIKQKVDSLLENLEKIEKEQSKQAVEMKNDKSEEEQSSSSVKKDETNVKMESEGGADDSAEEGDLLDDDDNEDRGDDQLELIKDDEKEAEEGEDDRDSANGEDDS
Chain of NUCL (nucleolin) (Homo sapiens) (P19338 2-710): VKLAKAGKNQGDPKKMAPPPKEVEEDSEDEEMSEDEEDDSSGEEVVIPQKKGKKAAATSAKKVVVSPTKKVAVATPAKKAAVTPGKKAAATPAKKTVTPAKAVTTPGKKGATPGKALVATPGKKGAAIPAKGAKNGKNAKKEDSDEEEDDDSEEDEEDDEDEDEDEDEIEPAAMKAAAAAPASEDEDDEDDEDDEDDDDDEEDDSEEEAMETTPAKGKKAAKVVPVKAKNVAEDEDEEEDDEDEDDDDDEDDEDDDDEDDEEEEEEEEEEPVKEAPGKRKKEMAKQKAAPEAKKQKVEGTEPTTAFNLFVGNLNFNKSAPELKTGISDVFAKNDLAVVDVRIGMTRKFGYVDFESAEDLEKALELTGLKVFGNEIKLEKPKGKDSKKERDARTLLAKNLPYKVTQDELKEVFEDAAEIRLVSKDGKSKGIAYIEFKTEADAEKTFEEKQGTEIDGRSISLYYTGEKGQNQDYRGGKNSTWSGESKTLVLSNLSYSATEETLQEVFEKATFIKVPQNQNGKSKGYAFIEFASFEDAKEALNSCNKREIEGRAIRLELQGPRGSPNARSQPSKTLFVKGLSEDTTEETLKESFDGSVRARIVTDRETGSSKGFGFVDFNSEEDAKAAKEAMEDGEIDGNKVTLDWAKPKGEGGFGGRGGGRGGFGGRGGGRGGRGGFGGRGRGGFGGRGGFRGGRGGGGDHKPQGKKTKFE

Substance	binding [1]	binding [2]	binding [3]	binding (RS3 (Homo sapiens))	binding (RS4X (Homo sapiens))	binding (hnRNPA1 (Homo sapiens))	binding (hnRNPA2B1 (Homo sapiens); streptavidin bead pulldown)	binding ([3]; non-specific)	binding (hnRNPA2B1 (Homo sapiens))
miR-198	1 peptides	3 peptides	9 peptides	3 peptides	3 peptides	2 peptides	4 peptides	–	–
poly-A	0 peptides	0 peptides	–	0 peptides	0 peptides	0 peptides	–	8 peptides	0 peptides
